The stoichiometry N is the number of molecules, sites or subunits per partner or assembly.

From article PMC5095912 come the findings set out here.

Several values for one entry are separate records, joined by “and”; a condition that tells them apart may be missing. Equal entries are not always repeated.

This assay concerns the target PKA regulatory subunit RIIα (UniProt P12367). Put plainly: native MS; components mixed at equimolar (1:1) ratio in 200 mM NH4OAc, equilibrated at least 10 min at room temperature; nESI on a Synapt G2-Si, 2-5 uM sample; single proteins sprayed alone too; some C + R samples preincubated with staurosporine, K252a or AT13148 before PKI.

Take “PKA regulatory subunit RIIα (from UniProt P12367 1-401) (natural protein)”: the stoichiometry N is 3 and 4 and 2.
